{"source": "patent US20140072577A1", "about": "(AstraZeneca / MedImmune, published 2014)", "binders": {"B1": {"name": "LC10 YTE (antibody corresponding to mAb LC10 containing an Fc variant (antibody, V domains shown)", "VH": "EVQLVESGGGLVQPGGSLRLSCAASGFTFSSHDMHWVRQATGKGLEWVSGIGTAGDTYYPDSVKGRFTISRENAKNSLYLQMNSLRAGDTAVYYCARDRYSPTGHYYGMDVWGQGTTVTVSS", "VL": "DIQMTQSPSTLSASVGDRVTITCRASQSISSWLAWYQQKPGKAPKLLIYKASSLESGVPSRFSGSGSGTEFTLTISSLQPDDFATYYCKQYADYWTFGQGTKVEIKR", "notes": "also called LC10-IgG1-YTE; MEDI4893"}}, "biological_target": "T1, BSA (bovine, UniProt P02769)", "T1 construct": "also called bovine serum albumin", "T1 sequence (P02769 25-607 limits assumed)": "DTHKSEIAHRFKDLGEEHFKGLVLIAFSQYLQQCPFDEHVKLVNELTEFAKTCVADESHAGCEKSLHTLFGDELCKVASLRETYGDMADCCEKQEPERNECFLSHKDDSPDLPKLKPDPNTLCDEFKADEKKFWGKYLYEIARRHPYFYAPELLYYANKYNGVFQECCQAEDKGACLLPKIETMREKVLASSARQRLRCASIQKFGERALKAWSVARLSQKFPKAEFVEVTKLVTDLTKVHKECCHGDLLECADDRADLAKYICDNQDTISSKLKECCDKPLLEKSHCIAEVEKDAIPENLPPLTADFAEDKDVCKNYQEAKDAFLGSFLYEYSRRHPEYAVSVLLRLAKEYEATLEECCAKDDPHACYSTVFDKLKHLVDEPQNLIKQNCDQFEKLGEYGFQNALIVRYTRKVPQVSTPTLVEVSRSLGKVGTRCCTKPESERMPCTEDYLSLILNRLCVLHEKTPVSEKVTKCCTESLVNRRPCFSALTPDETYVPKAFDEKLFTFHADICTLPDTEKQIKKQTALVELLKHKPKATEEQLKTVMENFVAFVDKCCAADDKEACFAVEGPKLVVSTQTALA", "experiment": "ELISA, BSA as control antigen; detection with anti-human IgG HRP", "data": [{"binder": "B1", "values": [{"measurement": "binding result", "result": "no binding"}]}]}
